# Experimental data as given in patent US20240216557A1, “RADIOLIGAND BINDING TO ANTI-DLL3 ANTIBODIES FOR PRETARGETED PET IMAGING AND THERAPEUTIC USES THEREOF” (Memorial Sloan-Kettering Cancer Center, priority 2021, published 2024).
# T1: hDLL1 (Homo sapiens, UniProt O00548)
# T1 sequence (O00548 18-723): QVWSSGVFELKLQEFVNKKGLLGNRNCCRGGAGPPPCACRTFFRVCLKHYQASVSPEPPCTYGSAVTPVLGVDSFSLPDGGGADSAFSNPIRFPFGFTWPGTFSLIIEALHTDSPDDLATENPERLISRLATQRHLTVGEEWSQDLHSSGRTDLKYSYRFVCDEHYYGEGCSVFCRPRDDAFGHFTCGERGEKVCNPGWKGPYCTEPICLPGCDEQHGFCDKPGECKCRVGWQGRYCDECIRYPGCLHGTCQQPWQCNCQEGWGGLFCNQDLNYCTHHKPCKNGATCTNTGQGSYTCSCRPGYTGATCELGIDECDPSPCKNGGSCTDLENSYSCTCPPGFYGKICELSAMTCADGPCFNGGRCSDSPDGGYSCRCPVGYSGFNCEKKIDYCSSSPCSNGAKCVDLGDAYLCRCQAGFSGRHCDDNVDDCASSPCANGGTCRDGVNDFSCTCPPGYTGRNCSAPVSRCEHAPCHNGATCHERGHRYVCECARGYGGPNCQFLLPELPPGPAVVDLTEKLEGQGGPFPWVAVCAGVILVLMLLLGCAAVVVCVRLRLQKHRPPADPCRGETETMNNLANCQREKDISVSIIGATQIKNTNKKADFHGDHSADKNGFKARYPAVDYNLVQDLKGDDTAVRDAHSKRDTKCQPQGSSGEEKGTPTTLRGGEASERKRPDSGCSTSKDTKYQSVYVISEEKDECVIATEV
# T2: Histidine-tagged DLL3 antigen (DLL3-His) (Homo sapiens, UniProt Q9NYJ7)
# T2 construct: corresponding to amino acids Ala27-Ala479 with a C-terminal 6×His tag; made in house; host or cells: HEK293T cells
# T2 sequence (Q9NYJ7 27-479): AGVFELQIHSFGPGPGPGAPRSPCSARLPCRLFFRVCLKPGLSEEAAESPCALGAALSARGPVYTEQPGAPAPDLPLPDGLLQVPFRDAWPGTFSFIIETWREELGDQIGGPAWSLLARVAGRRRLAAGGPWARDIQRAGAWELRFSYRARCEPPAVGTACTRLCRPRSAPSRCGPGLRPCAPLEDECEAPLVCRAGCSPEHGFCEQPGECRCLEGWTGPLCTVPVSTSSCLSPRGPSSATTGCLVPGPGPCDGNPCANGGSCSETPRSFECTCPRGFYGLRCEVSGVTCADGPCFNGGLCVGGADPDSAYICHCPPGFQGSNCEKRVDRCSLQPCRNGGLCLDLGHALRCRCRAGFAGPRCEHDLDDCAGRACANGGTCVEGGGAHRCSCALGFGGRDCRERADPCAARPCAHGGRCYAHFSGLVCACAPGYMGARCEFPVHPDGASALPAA
# Tested on: SCLC cells
# Assay: not given
# Details: cited from earlier work
row,Molecule,internalization by SCLC cells upon binding to DLL3
1,"SC16: DLL3-targeting SC16 antibody component of Rova-T (antibody, chains of the INN, looked up, V domains shown) VH: QVQLVQSGAEVKKPGASVKVSCKASGYTFTNYGMNWVRQAPGQGLEWMGWINTYTGEPTYADDFKGRVTMTTDTSTSTAYMELRSLRSDDTAVYYCARIGDSSPSDYWGQGTLVTVSS VL: EIVMTQSPATLSVSPGERATLSCKASQSVSNDVVWYQQKPGQAPRLLIYYASNRYTGIPARFSGSGSGTEFTLTISSLQSEDFAVYYCQQDYTSPWTFGQGTKLEIK",rapidly internalized

# Target: T1, hDLL1
# Assay: ELISA specificity, hDLL1
# Type: binding
# Details: not given
# Description: Next, affinity, binding domain, and specificity of antibodies including scFv designated as J8, B2, and L22 were analyzed. Affinity, binding domain and specificity of novel human anti-DLL3 antibodies are depicted in Table 30 below.
row,Molecule,ELISA hDLL1
1,"L22: anti-DLL3 antibody, VH SEQ ID NO: 17, VL SEQ ID NO: 18 (antibody, V domains shown) VH: EVQLLESGGGLVQPGGSLRLSCAASGFTFSSYAMGWVRQTPGKGLEWVSTISGRGGDTYYADSVKGRFTISRDNSKNTLYLQMNSLRAEDTAIYYCAKERGLGFDYWGQGTLVTVSS VL: DIVMTQTPLSLPVTPGEPASISCRSSQSLLDSDDGNTYLDWYLQKPGQSPQLLIYTLSYRASGVPDRFSGSGSGTDFTLKISRVEAEDVGVYYCMQHLEFPLTFGGGTKVEIK",0.105
2,"J8: anti-DLL3 antibody, VH SEQ ID NO: 7, VL SEQ ID NO: 8 (antibody, V domains shown) VH: QVHLVQSGAEVKKPGASVKVSCKASGYTFTIYYIHWVRQAPGQGLEWMGIINPSGGSTSYAQKFQGRVTMTRDTSTSTVYMELSSLRSEDTAVYYCSGNDYVDYVTTDYYGMDVWGQGTTVTVSS VL: DIQMTQSPSSLSASVGDRVTITCRASQGISNYLAWFQQKPGKAPKSLIYAASSLQSGVPSKFSGSGSGTDFTLTISSLQPEDFATYYCQQYNSSPYTFGQGTKLEIK",0.095

# Tested on: SCLC xenografts
# Assay: not given
# Details: mouse, in vivo, sc; cited from earlier work
row,Molecule,time post-injection at which optimal imaging was achieved
1,"[^89Zr]Zr-DFO-SC16 (conjugate, chains of the INN, looked up, DFO chelator, 89Zr label) VH: QVQLVQSGAEVKKPGASVKVSCKASGYTFTNYGMNWVRQAPGQGLEWMGWINTYTGEPTYADDFKGRVTMTTDTSTSTAYMELRSLRSDDTAVYYCARIGDSSPSDYWGQGTLVTVSS VL: EIVMTQSPATLSVSPGERATLSCKASQSVSNDVVWYQQKPGQAPRLLIYYASNRYTGIPARFSGSGSGTEFTLTISSLQSEDFAVYYCQQDYTSPWTFGQGTKLEIK",≥ 120

# Target: T2, Histidine-tagged DLL3 antigen (DLL3-His)
# Assay: Pairwise epitope binning on Carterra array SPR
# Details: pairwise competition for binding to DLL3-His, antibodies immobilized on HC200M chip
# Description: The panel of purified anti-DLL3 monoclonal antibodies and the reference monoclonal antibody were subjected to pairwise epitope binning on a Carterra® array surface plasmon resonance (SPR) assay platform (Carterra*Inc., Salt Lake City UT) where each monoclonal antibody was tested for the capture of Histidine-tagged DLL3 antigen (DLL3-His), and also for competing with every other antibody in the panel for the binding to DLL3-His. The antibodies were immobilized on a HC200M chip (ligand) through standard amine coupling techniques by the print array method. Then in each cycle antigen was injected across the entire array followed by a single antibody (analyte). At the end of each cycle the surface was regenerated to remove antigen and analyte before a new cycle started.
row,Molecule,Epitope Bin
1,"B16-v2: anti-DLL3 antibody, VH SEQ ID NO: 108, VL SEQ ID NO: 113 (antibody, V domains shown) VH: QVQLVQSGAEVKKPGASVKVSCKASGYTFTSYYMHWVRQAPGQGLEWMGIIDPSGGSTSYAQKFQGRVTMTRDTSTNTVYMDLSSLRSEDTAVYYCARQGRYVGSYLDYWGQGTLVTVSS VL: DIQMTQSPSSLSASVGDRVTITCRASQGISNYLAWFQQKPGKAPKSVIYAASSLQSGVPSKFSGSGSGTDFTLTISSMQPEDFATYYCQQYNSYPYTFGQGTKLEIK",4
2,"L22: anti-DLL3 antibody, VH SEQ ID NO: 17, VL SEQ ID NO: 18 (antibody, V domains shown) VH: EVQLLESGGGLVQPGGSLRLSCAASGFTFSSYAMGWVRQTPGKGLEWVSTISGRGGDTYYADSVKGRFTISRDNSKNTLYLQMNSLRAEDTAIYYCAKERGLGFDYWGQGTLVTVSS VL: DIVMTQTPLSLPVTPGEPASISCRSSQSLLDSDDGNTYLDWYLQKPGQSPQLLIYTLSYRASGVPDRFSGSGSGTDFTLKISRVEAEDVGVYYCMQHLEFPLTFGGGTKVEIK",8
3,"A18: anti-DLL3 antibody, VH SEQ ID NO: 34, VL SEQ ID NO: 35 (antibody, V domains shown) VH: QVTLRESGPALVKSTQTLTLTCTFSGFSLSTSGMCVSWIRQTPGKALEWLALIDWDDNKYYSTSLKTRLIISKDTSKNQVVLTMTNMEPVDTATYYCARIRGYSGSYDAFDIWGQGTMVTVSS VL: DIVMTQSPLSLPVTPGEPASISCRSSQSLLHSNGYNYLDWYLQKPGQSPHILLYLGSNRAPGVPDRFSGSGSGTDFTLKISRVEAEDVGVYYCMQALQTPFTFGPGTKVDIK",6
4,"G16: anti-DLL3 antibody, VH SEQ ID NO: 157, VL SEQ ID NO: 158 (antibody, V domains shown) VH: QVQLVQSGAEVKKPGASVQVSCKASGYTFTSYYMHWVRQAPGQGLEWMGIINPSGGSTSYAQKFQGRVTMTRDTSTSTVYMELSSLRSEDTAVYYCARQGGAQWLVLAFDIWGQGTMVTVSS VL: EIVLTQSPGTLSLSPGERATLSCRASQSVSSYLAWYQQKPGQAPRLLIYGASSRATGIPDRFSGGGSGTDFTLTISRLEPEDFAVYYCQQYGSSPYTFGQGTKLEIK",4
5,"J8: anti-DLL3 antibody, VH SEQ ID NO: 7, VL SEQ ID NO: 8 (antibody, V domains shown) VH: QVHLVQSGAEVKKPGASVKVSCKASGYTFTIYYIHWVRQAPGQGLEWMGIINPSGGSTSYAQKFQGRVTMTRDTSTSTVYMELSSLRSEDTAVYYCSGNDYVDYVTTDYYGMDVWGQGTTVTVSS VL: DIQMTQSPSSLSASVGDRVTITCRASQGISNYLAWFQQKPGKAPKSLIYAASSLQSGVPSKFSGSGSGTDFTLTISSLQPEDFATYYCQQYNSSPYTFGQGTKLEIK",4
6,"O24: anti-DLL3 antibody, VH SEQ ID NO: 66, VL SEQ ID NO: 67 (antibody, V domains shown) VH: QVQLVQSGAEVKKPGASVKVSCKASGYTFTSYYLHWVRQAPGHGLEWMAIINPSGGSTSYAQKFLGRVTMTRDTSTNTVYMELSSLRSEDTAVYYCARERQQLDYYYFAMDVWGQGTTVTVSS VL: DIQMTQSPSSLSASVGDRVTITCRASQGISNYLAWFQQKPGKAPKSLIYAASSLQSGVPSKFSGSGSGTDFTLTISSLQPEDFATYYCQQYNSYPPTFGQGTKVEIK",4
7,"E23: anti-DLL3 antibody, VH SEQ ID NO: 119, VL SEQ ID NO: 120 (antibody, V domains shown) VH: QVQLVQSGAEVRKPGASVKVSCKASGYTFTGYYMHWVRQAPGQGLEWMGWINSYSGGANYAQKFQDRVTMTRDTSVSTASMELSRLRSDDTAVYYCARDGSGWYGSYFDFWGQGTLVTVSS VL: DIVMTQTPLSSPVTLGQPASISCRSSQSLVHSDGNTYLSWLQQRPGQPPRLLIYKISNRFSGVPDRFSGSGAGTDFTLKISRVEAEDVGFYYCIQTTQFPLTFGGGTKVEIK",7
8,"F9: anti-DLL3 antibody, VH SEQ ID NO: 126, VL SEQ ID NO: 127 (antibody, V domains shown) VH: QVQLVQSGAEVKKPGASVQVSCKASGYTFTSYYMHWVRQAPGQGLEWMGIINPSGGSTSYAQKFQGRVTMTRDTSTSTVYMELSSLRSEDTAVYYCARQGGAQWLVLAFDIWGQGTMVTVSS VL: EIVLTQSPGTLSLSPGERATLSCRASQSVSSYLAWYQQKPGQPPRLLIYGASSRATGIPDRFSGGGSGTDFTLTISRLEPEDFAVYYCQQYDSSPYTFGQGTKLEIK",4
9,"E9: anti-DLL3 antibody, VH SEQ ID NO: 42, VL SEQ ID NO: 43 (antibody, V domains shown) VH: QVQLVQSGAEVKKPGASVKVSCKASGYTFTSYYMHWVRQAPGQGLEWMGVINSSGGSTSYAQKFQGRVTMTRDTSTSTVYMDLSSLRSEDTAVYYCARGYCTNGVYYDEDFDYWGQGTLVTVSS VL: DIQMTQSPSSLSASVGDRVTITCRASQGISHYLAWFQQKPGKAPTSLIYAASSLQSGVPSKFSGSGSGTDFTLTISSLQPEDFATYYCQQYNSYPLTFGGGTKVEIK",4
10,"B22: anti-DLL3 antibody, VH SEQ ID NO: 141, VL SEQ ID NO: 142 (antibody, V domains shown) VH: EVQLVESGGGLVQPGGSLRLSCAASGFTFNNFWMSWVRQAPGKGLEWVANIKQDGSEKYYVDSVKGRFTISRDNAKNSLYLQMNSLRAEDTAVYYCARESYFDLWGRGTLVTVSS VL: QAVVTQESALTTSPGETVTLTCRSSTGAVTTSNYANWVQEKPDHLFTGLIGGTNNRAPGVPARFSGSLIGDKAALTITGAQTEDEAIYFCALWYSNRWVFGGGTKLTVL",2
